According to the nanobody polyreactivity screen of Harvey et al. (2022):

Assay: yeast display, Sf9 membrane polyspecificity reagent, FACS + sequencing; frameworks hold sequencing errors
Summary of the method: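 In a synthetic yeast display library (Saccharomyces cerevisiae BJ5465), nanobody expression was induced with galactose for 36–48 hours. FACS gates were set low and high (top ~1%) using anti-HA fluorescence for expression and streptavidin fluorescence for binding of the Sf9 membrane reagent. Each polyreactivity label is drawn from the gate of origin.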

Sequence | polyreactivity (PSR sort gate)
QVQLVESGGGLVQAGGSLRLSCAASGITFYHYAMGWYRQAPGKERELVATISSRGGTTYYADSVKGRFTISRDNAKNTVYLQMNSLKPEDTAVYYCADRTWIIYPVSKYDSWGQGTQVTVSS | high polyreactivity
QVQLVESGAGLVQAGGSLRLSCAASGIFVRYGMGWYRQAPGKERELVAAISYGGGSTYYADSVKGRFTISRDNAKITVYLQMNSLKPEDTAVYYCAASYANRYKYDEYDYWGQGTQVTVSS | high polyreactivity
QVQLVESGGGLVQAGGRLRLSCAPSGSTFPPYAMGWYRQAPGKERELVADITRRGASTYYADSVKGRFTISRDNAKNTVYLQMNSLKPEDTAVYYCAARFYYQYYSGFDYWGQGTQVTVST | high polyreactivity
QVHLVDSGGGLVQAGGILRLSCPATGSIFVYNTMGWYRQAPGKERELVADITSGTSTYYADSVKGRFTISRDNAKNTVYLQMNSLKPEDTAVYYSAAERWYKYYAYDYWGQGTQVTVSS | low polyreactivity
QVQLVESGGGLVQAGGSLRLRCAASGRTFYSHTMGWYRQAPGKERELVAAIDWSGGRTYYADSVKGRFTISRDNAKNTVYLQMNSLKPEDTAVDYCNTVGYTRRLRSGGYWGQGTQVTVSS | high polyreactivity
QVQLVESGGGLDQAGGSLRLSCAASGLTFQLYTMGWYRQAHGKERELVAAISRSGTRTYYADSVKGRFTISLDNAKNTVYLQMNSLKPEDTAVYYCAARTDGYRNNYWGQGTQVTVSS | high polyreactivity
QVQLVESGGGLVQAGGSLRLSCADSGSIFAYNGMGWKRQAPGKERELVAAISRGGRTSYADSVKGRFTISRDNAKNTVYLQMNSVKPEDTAVYYCNAVYRWFSSAYVYSSGYNGDYWGQGTQVTVSS | high polyreactivity
QVQLVESGGCLVQAGGSLRLSCAASGSTFNYYAMGWYRQAPGKERELVAAISSSGGRTYYADSVKGRFTISRDNAKNTVYLQMNSLKPEDTAVYYCNARTYSYRGYNYWGQGTQVTVSS | high polyreactivity
QVQLVESGGGLVQAGGSLRLSCAASGSTVYHNAMGRYRQAPGKERELVAAITWSGSRTYYADSVKGRFTISRDNAKNTVYLQMNSLKPEDTAVYYCAARDYWGQGTQVTVSS | high polyreactivity
QVQLVESGGGLVQAGGSLRLSCAASGSTFRVNAMGWYRQAPGKERELVAAISYRGGSTYYADSVKGRFTISRDNAKNTVYLQMINLKPEDTAVYYCNADLKRRTYGPDSYYWGQGTQVTVSS | high polyreactivity
QVQLVESGGGLVQAGGSLRLSCAASGSTFKRYAMAWYREGPGKEMDLVASISRSGCSTYYADSVKGRFTISRDNAKNSVYLQMNSLIPEDTAVYYCASRGFSFSFSYPSYDYWGQGTQVTVSS | high polyreactivity
QVQLVESGGGLVQAGGSLRLSCAASGIIFQGNAMGWYRQAPGKERELVAVITSRGGSTYYADSVKGRFTISRDNAKNTVYLQMNSLLPEDTAVYYCAKAKRYPQYYYWGQGTQVTVSS | high polyreactivity
QVQLVESGGGLVQAGGSLRLSCAASGSIFGRYAMGWYRQAPGKERELVAAITYRGGTTYYADSVKGRFTISRDNAKNTVYLQMNSLKPEDTAVYYCAAEGTWYYKYGYFAYYYWGQGTQVTVSS | low polyreactivity
QVQLVESGGGLVQAGGILRLSCAAYGRTFYLYTMGWYRQEPGKERELVAAISRGGRTYADSVKGRFTISRDNAKNTVYLQMNSLKPEDTAVYYCADRGYFYYSRYDSWGQGTQVTVSS | low polyreactivity
QVQLVESGGGLVQAGGSLRLSCAASGRIFNYNALGWYRQAPGKESELVATITYIGTGTYYADSVKGRFTISRDNAKTTVYLQMNSLKPEDTAVYYCAASYRSRVWWRFDYWGQGTQVTVSS | high polyreactivity
QVQLVESGGGLVQAGGSLRLICAASGSIIHKNAMGWYRQAPGKERELVARITSSSGSTYYADSVKGRFTISRDNAKNTVYLQMNSLKPEDTAVYYFNAVYYHDVDFDYWGQGTQVTVSS | high polyreactivity

Sequence | polyreactivity (PSR sort gate)
QVQLVESGGGLVQAGGSLRLSCAASGSIFSENTMGWYRQAPGTKREWVADITSGGSTNYADSVKGRFTISRDNAKNTVYLQMNSLKPEDTAVYYCAVPGRLYAHPQGYDYWGQGTQVTVSS | low polyreactivity
QVQLVESGGGLVQAGGSLRLSCAASGIIFRYYAMGWYRQAPGKERELVAAISRSGARTYYADTVKGRFTISRDNAKNTVFLQRNSLKPEDTAVYYCATDPTSGRFYYWGQGTQVTVSS | high polyreactivity
QVQLVESGGGLVQAGGSLRLSCAASGITFYVHAMGWYRQAPGKERELVASITWSGGSTYYADSVKGRFTISRDNAKNTVYLQMNSLKPEDTAVYYCAHVLYRAYEYWGQGTQVTVSS | low polyreactivity
QVKLVESGGGLVQAGGSLRLSCAASGIIFQYYAMGWYRQAPGKESELVAAISWSGGSTYYADSVKGRFTISRDNAKNTVYLQMNSLKPEDTAVYYCAARSRSYWPYEGYYWGQGTQVTVSS | low polyreactivity
QVQLVESGGGLVQAGGSLRLSCAASGSTFTGNAMGWYRQAPGKERELVASISTGGSTNYADSVKGRFTISRDNAKNTVYLQMNSLKPEDTAVYYCATDYCFKDSVVDFDYWGQGTQVTVSS | low polyreactivity
QVQLVESGGGLVQAGGSLRLSCAASGATFGYYAMGWYRQAPGKEMEFVARITQRGSRTYYADSVKGRFTISRDNAKNTVYLQMNSLKPEDTAVYYCDAEVWWTHNGRGAYGYDYWGQGTHVTVSS | high polyreactivity
HVQLVESGGGLVQAGGSLRLSCAASGSTFNINAMVWYRQAPGKERELFAAISWSGDITYYADSVKGRFTISRDNAKNTVYLLMISLKPEDTAVYYCNTDDPGNYWYAEYDYWGQGTQVTVSS | low polyreactivity
QVQLVDSGGGLVQAGGSLRLSCAASGSIFQRYAMGWYRQAPGKERELVAGINWSGGRTYYADSVKGRFTISRDNAKNTVYLQMNSLKPEDTAVYYCAAARYTRYDYWGQGTQVTVSS | high polyreactivity
QVQLVESGGGLVQAGGSLRLSCAASGSILNGYAMGLYRQAPGKERELVAAISGSGGSTHYADSVKWRFTISRDNAKNTVYLQMNSLKPEDTAVYYCAAAYKWTYYWGQGTQVTVSS | high polyreactivity
QVQLVESGGGLVQAGGSLRLSCAASGFILGGYAMGWYRQAPGKERELVAAISWSSGSTYYADSVKGRFTISRDNAKTTVYLQLNSLKPEDTAVYYCAAVGAYDYWGQGTQVTVSS | low polyreactivity
QVQLVESGGGLVQAGGSLRLSCAASGRTFKWYAMGWYRQAPGKERELVAAISSSGSTYYADSVKGRFTISRDNAKNTVYLQMNSLKPEDTAVYYCAVLRRYLVGNLVGYNYWGQGTQVTVSS | high polyreactivity
QVQLVESGGGLVQAGGSLRLSCAASGLTFDPYAMGWYRQAPGKEREFVAAINSDDGSTYYADSVKGRFTISRDNAKNTVYLQMNSLKPEDTAVYYCNADLAHFLWYQYDYWGQGTQVTVSS | low polyreactivity
QVQLVESGGGLVQAGGSLRLSCAASGRIFEVYAMGWYRQAPGKERELVAAITSSGGSRTYYADSVKGRFTISRDNAKNTVYLQMNSLKPEDTAVYYCAASTHRGRYKRYDYWGQGTQVTVSS | high polyreactivity
QVQLVESGGGLVQAGCILRLSCAASGFTFSWYAMGWYRQARGKERELVAAISYSGDSTYYADSVKGRFTISRDNAKNTVYLQMNSLKPEDTAVYYCARRSYYATYYPQPFGYNYLGQGTQVTVSS | high polyreactivity
QVQLVESGGGLVQAGGSLRLSCAASGRTFTYNMGWYRQAPGKERELVAANDLRRLCEGALHNFTRQCDEYRLFTDEQPETGRYPVYYCNADPAWIWYTFDYWGQGTQVTVSS | low polyreactivity
QVQLVESGGGLVQAGGSLRLSCAAYGRTFGRYAMGWYRQAPGKERELVAVINGGGSTYYADSVKGRFTISRDNAKNTVYLQMNSLKPEDTAVDYCAVGGYTRTGGWFDYWGQGTQVTVSS | high polyreactivity
